Measured values taken from paper PMC8551656, “Discovery of a novel role of tumor suppressor PDCD4 in stimulation of translation termination” (The Journal of Biological Chemistry, 2021).

Biological target: T1, poly(A)-binding protein (PABP) (human, UniProt P11940 1-636)
T1 construct: source: E. coli BL21, purified (Ni-NTA agarose, ion-exchange chromatography)
Test: pull-down; GST-PDCD4 (40 pmol) incubated with PABP (40 pmol) in solution, 20 μl, 1 h at 4 °C, 25 mM Tris-HCl pH 7.5, 10% glycerol, 100 mM KCl, 2.5 mM MgCl2, 2 mM DTT, 0.25 mM spermidine, 0.2 mM GTP; then held on glutathione-sepharose 4B, four washes, release by TEV protease, western blot
Details: both partners purified

T1 sequence (P11940 whole entry): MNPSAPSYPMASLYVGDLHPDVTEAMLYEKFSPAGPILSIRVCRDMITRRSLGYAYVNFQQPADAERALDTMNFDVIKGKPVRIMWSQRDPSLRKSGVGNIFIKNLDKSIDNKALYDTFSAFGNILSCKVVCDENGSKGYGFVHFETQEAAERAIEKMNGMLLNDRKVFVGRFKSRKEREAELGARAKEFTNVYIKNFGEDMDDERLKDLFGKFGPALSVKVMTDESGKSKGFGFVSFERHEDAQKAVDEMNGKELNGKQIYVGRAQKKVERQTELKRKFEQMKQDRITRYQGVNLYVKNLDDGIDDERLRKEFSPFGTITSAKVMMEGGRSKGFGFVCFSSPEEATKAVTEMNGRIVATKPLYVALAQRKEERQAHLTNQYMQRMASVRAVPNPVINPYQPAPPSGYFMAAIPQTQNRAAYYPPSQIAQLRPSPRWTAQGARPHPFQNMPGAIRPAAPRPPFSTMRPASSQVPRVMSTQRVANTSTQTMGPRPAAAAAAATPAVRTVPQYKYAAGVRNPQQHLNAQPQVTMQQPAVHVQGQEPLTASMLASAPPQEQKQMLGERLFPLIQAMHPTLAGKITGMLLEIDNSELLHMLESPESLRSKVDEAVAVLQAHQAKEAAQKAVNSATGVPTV

B1: GST-tagged programmed cell death 4 protein (PDCD4) (natural protein, human, UniProt Q53EL6-1 1-469, looked up)
chain: MDVENEQILNVNPADPDNLSDSLFSGDEENAGTEEIKNEINGNWISASSINEARINAKAKRRLRKNSSRDSGRGDSVSDSGSDALRSGLTVPTSPKGRLLDRRSRSGKGRGLPKKGGAGGKGVWGTPGQVYDVEEVDVKDPNYDDDQENCVYETVVLPLDERAFEKTLTPIIQEYFEHGDTNEVAEMLRDLNLGEMKSGVPVLAVSLALEGKASHREMTSKLLSDLCGTVMSTTDVEKSFDKLLKDLPELALDTPRAPQLVGQFIARAVGDGILCNTYIDSYKGTVDCVQARAALDKATVLLSMSKGGKRKDSVWGSGGGQQSVNHLVKEIDMLLKEYLLSGDISEAEHCLKELEVPHFHHELVYEAIIMVLESTGESTFKMILDLLKSLWKSSTITVDQMKRGYERIYNEIPDINLDVPHSYSVLERFVEECFQAGIISKQLRDLCPSRGRKRFVSEGDGGRLKPESY
notes: human PDCD4, isoform 1, UniProt Q53EL6-1; cDNA cloned into pGEX-6p-1; printed primers run from the start codon to the last codon; Held on glutathione-sepharose by GST in the pull-down; also called GST-PDCD4; recombinant PDCD4; source: E. coli BL21, purified (glutathione-sepharose 4B, eluted with glutathione; HiTrapQ)
B1: binds.
